We go through three molecules from patent publication US20190085314A1 (SAINT LOUIS UNIVERSITY, published 2019).

Test [1] deals with AtUBC8 (Arabidopsis thaliana ubiquitin conjugating enzyme E2 8), 6xHIS-tagged (Arabidopsis thaliana) (UniProt P35131). Nature of the test: interface area calculated for residues 74-82 of AtMUB3 within the co-crystal structure.
For test [2] the target is unchanged. The experiment in a line: Delta G calculated for residues 74-82 of AtMUB3 within the co-crystal structure; unit not given.
The target of test [3] is T1, biotinylated E2 (Ube2D3), from the E1/E2 Lite kit (LifeSensors) (UniProt P61077 1-147, limits assumed, biotinylated (site not stated); labelled with streptavidin-terbium in the assay).
T1 construct: Bought kit reagent; also called biotinylated Ube2D3
Nature of the test: HTRF-FRET E2 activation assay; initial velocity against HsMUB concentration, one-site binding fit; IC50 equal to Ki under limiting E2. For orientation: TR-FRET usually uses a lanthanide donor and a delayed reading to cut background.

Test [4] has as its target T2, AtUBC8 (Arabidopsis thaliana ubiquitin conjugating enzyme E2 8), 6xHIS-tagged (Arabidopsis thaliana, UniProt P35131 1-148).
T2 construct: The crystal model holds residues 1-147/1-148; also called AtUBC08; not shown: 6xHIS tag
The experiment in a line: Isothermal titration calorimetry (MicroCal iTC200), 110 uM AtMUB3 titrated into 8 uM AtUBC8, OneSites model; 25 mM HEPES pH 7.5, 200 mM NaCl, 1 mM TCEP. The protocol: FIG. 13. […] Proteins were purified as described for crystallization and dialyzed extensively against a buffer containing 25 mM HEPES, pH 7.5, 200 mM NaCl, 1 mM TCEP. Data was processed with MicroCal Origin 7 software, and normalized against the dialysis buffer's heat of dilution.
A general note: ITC needs no label: the signal is the heat of the interaction.

T2 sequence (P35131 whole entry, the tested form may be a part): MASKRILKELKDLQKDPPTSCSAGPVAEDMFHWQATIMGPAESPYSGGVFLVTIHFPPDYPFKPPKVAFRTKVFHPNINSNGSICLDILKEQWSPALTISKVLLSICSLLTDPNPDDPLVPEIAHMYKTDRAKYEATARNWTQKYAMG
Sequence of AtUBC8 (Arabidopsis thaliana ubiquitin conjugating enzyme E2 8), 6xHIS-tagged (Arabidopsis thaliana) (P35131 whole entry, the tested form may be a part): as above
T1 sequence (P61077 whole entry): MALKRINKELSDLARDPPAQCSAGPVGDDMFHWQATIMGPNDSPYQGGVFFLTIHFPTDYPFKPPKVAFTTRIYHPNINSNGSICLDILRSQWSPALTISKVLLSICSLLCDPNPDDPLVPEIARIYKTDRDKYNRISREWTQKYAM

“AtMUB3 (74-82) (from UniProt Q9SW27 74-82)”: the Surface area (Å^2) in test [1] was 288 Å^2. Besides, in test [2], the Delta G is -5.

B1: HsMUB (Homo sapiens Membrane-anchored Ubiquitin-fold protein), C-terminal 6xHIS (other)
chain: MSSNVPADMINLRLILVSGKTKEFLFSPNDSASDIAKHVYDNWPMDWEEEQVSSPNILRLIYQGRFLHGNVTLGALKLPFGKTTVMHLVARETLPEPNSQGQRNREKTGESNCCVIL
notes: The coding region was cloned with the stop codon removed; also called Ubl3; human MUB; not shown: C-terminal 6xHIS tag from pET28b
By Ki is commonly meant the dissociation constant of the complex between target and ligand, obtained from inhibition or displacement. B1: affinity in test [3] was put at a Ki of 220 nM.

B2: AtMUB3 (Arabidopsis thaliana Membrane-anchored Ubiquitin-fold protein 3), 6xHIS-tagged (other, UniProt Q9SW27 1-118, looked up)
chain: MPEEESIDIKFRLYDGSDIGPFRYSAASTVDFLKQRVVSDWPKGKTVVPKGINEVKLISSGKILENNKTVGQCKTPFGDIAGGVIVMHVVVQPSLAKSKTEKKVDKAPKAVICTCTIL
notes: Expressed in E. coli, so not prenylated; An N-terminal 6xHIS AtMUB3 is also described; also called AtMUB3-His; not shown: C-terminal 6xHIS tag from pET28b
Usually Kd stands for a measure of binding affinity in units of concentration. In test [4], B2 registered a Ka of 3.53e+06 M⁻¹, a Kd of 283 nM, a ΔH of -8.84 kcal/mol and a ΔS of 0.331 cal/mol/deg.
